Experimental data from patent publication US20230272113A1.

B1: FL-40 (scFv)
scFv: QVTLKESGPTLVKPTETLTLTCTVSGFSLSNARMGVSWIRQPPGKCLEWLANIFSNDEKSYSTSLKSRLTISKGTSKSQVVLTMTNVNPVDTGTYYCARIVGYGSGWYGYFDYWGQGTLVTVSSGGGGSGGGGSGGGGSDIQMTQSPSSLSASVGDRVTITCRASQDIRNDLGWYQQKPGKAPKRLIYATSIRQSGVPSRFTGSGSGTEFTLTISGLQPEDFATYFCLQHNSFPLTFGCGTKVEIK
B2: FL-42 (scFv)
scFv: QVTLKESGPALVKPTETLTLTCTLSGFSLNNARMAVSWIRQPPGKCLEWLAHIFSNDEKSYSTSLKSRLTISKDTSKSQVVLTMTNMDPEDTATYYCARIVGYGTGWYGFFDYWGQGILVTVSSGGGGSGGGGSGGGGSDIQMTQSPSSLSASVGDRVTITCRASQGIRNDLAWYQQKPGKAPKRLIYAASSLQSGVPSRFSGSGSGTEFTLTISSLQPEDFATYYCLQHNSYPLTFGCGTKVEIK
B3: FL-41 (scFv)
scFv: QVTLKESGPVLVKPTQTLTLTCTFSGFSLSNARMGVSWIRQPPGKCLEWLAHIFSNDEKSFSTSLKNRLTISKDTSKSQVVLTMTNMDPVDTATYYCARMVGYGSGWYAYFDYWGQGTQVTVSSGGGGSGGGGSGGGGSDIQMTQSPSSLSASVGDRVTITCRASQSISSYLNWYQQKPGKAPKLLIYAASSLQSGVPSRFSGSGSGTDFTLTISSLQPEDFATYYCLQHNSYPLTFGCGTKVEIK
B4: FL-39 (scFv)
scFv: QVTLKESGPTLVKPTETLTLTCTLSGFSLNNARMGVSWIRQPPGKCLEWLAHIFSNDEKSYSTSLKNRLTISKDSSKTQVVLTMTNVDPVDTATYYCARIVGYGSGWYGFFDYWGQGTLVTVSSGGGGSGGGGSGGGGSDIQMTQSPSSLSASVGDRVTITCRASQGIRNDLGWYQQKPGKAPKRLIYAASTLQSGVPSRFSGSGSGTEFTLTISSLQPEDFATYYCLQHNSYPLTFGCGTKVEIK
B5: FL-38 (scFv)
scFv: QVTLKESGPVLVKPTETLTLTCTVSGFSFRNARMGVSWIRQPPGKALEWLAHIFSNDEKSYSTSLKSRLTISKDTSKSQVVLTLTNMDPVDTATYFCARMPEYSSGWSGAFDIWGQGTLVTVSSGGGGSGGGGSGGGGSDIQMTQSPSSLSASVGDRVTITCRASQGIRNDLGWYQQKPGKAPKRLIYAASSLQSGVPSRFSGSGSGTEFTLTISSLQPEDFATYYCLQHNSYPLTFGGGTKLEIK

Each binder was assayed against human FLT3 on transfected CHO cells (human) (UniProt P36888) (assay: FACS, scFv on CHO-human FLT3 cells pre-incubated with FLT3 ligand (competitor)).

Median [+ligand]/median [w/o ligand]*100, > 75%:
B1
B2
B3
B4
B5
